Numbered stars: 1 amine (or outer) side, 2 acyl side, 3 side chain; on linkers, the order of the positions; unused ones are H or OH. Bridge positions count the residues as written; N and C are the ends. Side chains are listed from the residue outwards. Ends that are not written are not given here. * marks the point of attachment. C20 diacid = O=C(O)CCCCCCCCCCCCCCCCCCC(=O)*; γGlu = O=C(O)[C@H](CCC(=O)[*:2])N[*:1]
T1: human calcitonin receptor (human, UniProt P30988 25-474)
T1 construct: whole, on cells; Used as cell membranes; also called hCTR; hCT
T1 sequence (looked up): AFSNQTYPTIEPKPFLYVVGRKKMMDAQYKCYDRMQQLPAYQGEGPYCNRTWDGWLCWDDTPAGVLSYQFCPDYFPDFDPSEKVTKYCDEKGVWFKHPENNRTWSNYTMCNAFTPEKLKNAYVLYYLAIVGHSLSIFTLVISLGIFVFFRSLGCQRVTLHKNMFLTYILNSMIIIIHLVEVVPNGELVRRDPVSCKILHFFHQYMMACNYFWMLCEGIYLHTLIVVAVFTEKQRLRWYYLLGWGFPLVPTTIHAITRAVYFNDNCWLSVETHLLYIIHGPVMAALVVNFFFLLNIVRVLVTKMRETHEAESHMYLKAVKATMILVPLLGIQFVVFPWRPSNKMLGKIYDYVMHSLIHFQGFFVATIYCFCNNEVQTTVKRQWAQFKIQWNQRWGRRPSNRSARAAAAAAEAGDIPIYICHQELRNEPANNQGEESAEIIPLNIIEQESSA

B1: N^ε1-[(4S)-4-carboxy-4-(19-carboxynonadecanoylamino)butanoyl]-[Arg17,Pro21,Pro27,Arg34]-h-amylin (peptide)
peptide: K([γGlu-C20 diacid])CNTATCATQRLANFLRHSSPNFGAIPSSTNVGRNTY-NH2
modifications: disulfide 2-7; N-terminus assumed
SMILES: CC[C@H](C)[C@H](NC(=O)[C@H](C)NC(=O)CNC(=O)[C@H](Cc1ccccc1)NC(=O)[C@H](CC(N)=O)NC(=O)[C@@H]1CCCN1C(=O)[C@H](CO)NC(=O)[C@H](CO)NC(=O)[C@H](Cc1c[nH]cn1)NC(=O)[C@H](CCCNC(=N)N)NC(=O)[C@H](CC(C)C)NC(=O)[C@H](Cc1ccccc1)NC(=O)[C@H](CC(N)=O)NC(=O)[C@H](C)NC(=O)[C@H](CC(C)C)NC(=O)[C@H](CCCNC(=N)N)NC(=O)[C@H](CCC(N)=O)NC(=O)[C@@H](NC(=O)[C@H](C)NC(=O)[C@@H]1CSSC[C@H](NC(=O)[C@@H](N)CCCCNC(=O)CC[C@H](NC(=O)CCCCCCCCCCCCCCCCCCC(=O)O)C(=O)O)C(=O)N[C@@H](CC(N)=O)C(=O)N[C@@H]([C@@H](C)O)C(=O)N[C@@H](C)C(=O)N[C@@H]([C@@H](C)O)C(=O)N1)[C@@H](C)O)C(=O)N1CCC[C@H]1C(=O)N[C@@H](CO)C(=O)N[C@@H](CO)C(=O)N[C@H](C(=O)N[C@@H](CC(N)=O)C(=O)N[C@H](C(=O)NCC(=O)N[C@@H](CCCNC(=N)N)C(=O)N[C@@H](CC(N)=O)C(=O)N[C@H](C(=O)N[C@@H](Cc1ccc(O)cc1)C(N)=O)[C@@H](C)O)C(C)C)[C@@H](C)O
notes: also called compound 79
B2: N^ε1-[(4S)-4-carboxy-4-(19-carboxynonadecanoylamino)butanoyl]-[Glu14,Arg17,Pro21,Pro27,His34,Glu35]-h-amylin (peptide)
peptide: K([γGlu-C20 diacid])CNTATCATQRLAEFLRHSSPNFGAIPSSTNVGHETY-NH2
modifications: disulfide 2-7; N-terminus assumed
SMILES: CC[C@H](C)[C@H](NC(=O)[C@H](C)NC(=O)CNC(=O)[C@H](Cc1ccccc1)NC(=O)[C@H](CC(N)=O)NC(=O)[C@@H]1CCCN1C(=O)[C@H](CO)NC(=O)[C@H](CO)NC(=O)[C@H](Cc1c[nH]cn1)NC(=O)[C@H](CCCNC(=N)N)NC(=O)[C@H](CC(C)C)NC(=O)[C@H](Cc1ccccc1)NC(=O)[C@H](CCC(=O)O)NC(=O)[C@H](C)NC(=O)[C@H](CC(C)C)NC(=O)[C@H](CCCNC(=N)N)NC(=O)[C@H](CCC(N)=O)NC(=O)[C@@H](NC(=O)[C@H](C)NC(=O)[C@@H]1CSSC[C@H](NC(=O)[C@@H](N)CCCCNC(=O)CC[C@H](NC(=O)CCCCCCCCCCCCCCCCCCC(=O)O)C(=O)O)C(=O)N[C@@H](CC(N)=O)C(=O)N[C@@H]([C@@H](C)O)C(=O)N[C@@H](C)C(=O)N[C@@H]([C@@H](C)O)C(=O)N1)[C@@H](C)O)C(=O)N1CCC[C@H]1C(=O)N[C@@H](CO)C(=O)N[C@@H](CO)C(=O)N[C@H](C(=O)N[C@@H](CC(N)=O)C(=O)N[C@H](C(=O)NCC(=O)N[C@@H](Cc1c[nH]cn1)C(=O)N[C@@H](CCC(=O)O)C(=O)N[C@H](C(=O)N[C@@H](Cc1ccc(O)cc1)C(N)=O)[C@@H](C)O)C(C)C)[C@@H](C)O
notes: also called compound 107
B3: N^ε1-[(4S)-4-carboxy-4-(19-carboxynonadecanoylamino)butanoyl]-[Glu14,Arg17,Pro21,Pro27,Arg34,Glu35]-h-amylin (peptide)
peptide: K([γGlu-C20 diacid])CNTATCATQRLAEFLRHSSPNFGAIPSSTNVGRETY-NH2
modifications: disulfide 2-7; N-terminus assumed
SMILES: CC[C@H](C)[C@H](NC(=O)[C@H](C)NC(=O)CNC(=O)[C@H](Cc1ccccc1)NC(=O)[C@H](CC(N)=O)NC(=O)[C@@H]1CCCN1C(=O)[C@H](CO)NC(=O)[C@H](CO)NC(=O)[C@H](Cc1c[nH]cn1)NC(=O)[C@H](CCCNC(=N)N)NC(=O)[C@H](CC(C)C)NC(=O)[C@H](Cc1ccccc1)NC(=O)[C@H](CCC(=O)O)NC(=O)[C@H](C)NC(=O)[C@H](CC(C)C)NC(=O)[C@H](CCCNC(=N)N)NC(=O)[C@H](CCC(N)=O)NC(=O)[C@@H](NC(=O)[C@H](C)NC(=O)[C@@H]1CSSC[C@H](NC(=O)[C@@H](N)CCCCNC(=O)CC[C@H](NC(=O)CCCCCCCCCCCCCCCCCCC(=O)O)C(=O)O)C(=O)N[C@@H](CC(N)=O)C(=O)N[C@@H]([C@@H](C)O)C(=O)N[C@@H](C)C(=O)N[C@@H]([C@@H](C)O)C(=O)N1)[C@@H](C)O)C(=O)N1CCC[C@H]1C(=O)N[C@@H](CO)C(=O)N[C@@H](CO)C(=O)N[C@H](C(=O)N[C@@H](CC(N)=O)C(=O)N[C@H](C(=O)NCC(=O)N[C@@H](CCCNC(=N)N)C(=O)N[C@@H](CCC(=O)O)C(=O)N[C@H](C(=O)N[C@@H](Cc1ccc(O)cc1)C(N)=O)[C@@H](C)O)C(C)C)[C@@H](C)O
B4: N^ε1-[(4S)-4-carboxy-4-(19-carboxynonadecanoylamino)butanoyl]-[Glu14,Arg17,Pro21,Pro27,Pro34,Glu35]-h-amylin (peptide)
peptide: K([γGlu-C20 diacid])CNTATCATQRLAEFLRHSSPNFGAIPSSTNVGPETY-NH2
modifications: disulfide 2-7; N-terminus assumed
SMILES: CC[C@H](C)[C@H](NC(=O)[C@H](C)NC(=O)CNC(=O)[C@H](Cc1ccccc1)NC(=O)[C@H](CC(N)=O)NC(=O)[C@@H]1CCCN1C(=O)[C@H](CO)NC(=O)[C@H](CO)NC(=O)[C@H](Cc1c[nH]cn1)NC(=O)[C@H](CCCNC(=N)N)NC(=O)[C@H](CC(C)C)NC(=O)[C@H](Cc1ccccc1)NC(=O)[C@H](CCC(=O)O)NC(=O)[C@H](C)NC(=O)[C@H](CC(C)C)NC(=O)[C@H](CCCNC(=N)N)NC(=O)[C@H](CCC(N)=O)NC(=O)[C@@H](NC(=O)[C@H](C)NC(=O)[C@@H]1CSSC[C@H](NC(=O)[C@@H](N)CCCCNC(=O)CC[C@H](NC(=O)CCCCCCCCCCCCCCCCCCC(=O)O)C(=O)O)C(=O)N[C@@H](CC(N)=O)C(=O)N[C@@H]([C@@H](C)O)C(=O)N[C@@H](C)C(=O)N[C@@H]([C@@H](C)O)C(=O)N1)[C@@H](C)O)C(=O)N1CCC[C@H]1C(=O)N[C@@H](CO)C(=O)N[C@@H](CO)C(=O)N[C@H](C(=O)N[C@@H](CC(N)=O)C(=O)N[C@H](C(=O)NCC(=O)N1CCC[C@H]1C(=O)N[C@@H](CCC(=O)O)C(=O)N[C@H](C(=O)N[C@@H](Cc1ccc(O)cc1)C(N)=O)[C@@H](C)O)C(C)C)[C@@H](C)O
B5: N^ε1-[(4S)-4-carboxy-4-(19-carboxynonadecanoylamino)butanoyl]-[His14,Arg17,Pro21,Pro27,His35]-h-amylin (peptide)
peptide: K([γGlu-C20 diacid])CNTATCATQRLAHFLRHSSPNFGAIPSSTNVGSHTY-NH2
modifications: disulfide 2-7; N-terminus assumed
SMILES: CC[C@H](C)[C@H](NC(=O)[C@H](C)NC(=O)CNC(=O)[C@H](Cc1ccccc1)NC(=O)[C@H](CC(N)=O)NC(=O)[C@@H]1CCCN1C(=O)[C@H](CO)NC(=O)[C@H](CO)NC(=O)[C@H](Cc1c[nH]cn1)NC(=O)[C@H](CCCNC(=N)N)NC(=O)[C@H](CC(C)C)NC(=O)[C@H](Cc1ccccc1)NC(=O)[C@H](Cc1c[nH]cn1)NC(=O)[C@H](C)NC(=O)[C@H](CC(C)C)NC(=O)[C@H](CCCNC(=N)N)NC(=O)[C@H](CCC(N)=O)NC(=O)[C@@H](NC(=O)[C@H](C)NC(=O)[C@@H]1CSSC[C@H](NC(=O)[C@@H](N)CCCCNC(=O)CC[C@H](NC(=O)CCCCCCCCCCCCCCCCCCC(=O)O)C(=O)O)C(=O)N[C@@H](CC(N)=O)C(=O)N[C@@H]([C@@H](C)O)C(=O)N[C@@H](C)C(=O)N[C@@H]([C@@H](C)O)C(=O)N1)[C@@H](C)O)C(=O)N1CCC[C@H]1C(=O)N[C@@H](CO)C(=O)N[C@@H](CO)C(=O)N[C@H](C(=O)N[C@@H](CC(N)=O)C(=O)N[C@H](C(=O)NCC(=O)N[C@@H](CO)C(=O)N[C@@H](Cc1c[nH]cn1)C(=O)N[C@H](C(=O)N[C@@H](Cc1ccc(O)cc1)C(N)=O)[C@@H](C)O)C(C)C)[C@@H](C)O
notes: also called compound 66
B6: N^ε1-[(4S)-4-carboxy-4-(19-carboxynonadecanoylamino)butanoyl]-[His14,Arg17,Pro21,Pro27,His34]-h-amylin (peptide)
peptide: K([γGlu-C20 diacid])CNTATCATQRLAHFLRHSSPNFGAIPSSTNVGHNTY-NH2
modifications: disulfide 2-7; N-terminus assumed
SMILES: CC[C@H](C)[C@H](NC(=O)[C@H](C)NC(=O)CNC(=O)[C@H](Cc1ccccc1)NC(=O)[C@H](CC(N)=O)NC(=O)[C@@H]1CCCN1C(=O)[C@H](CO)NC(=O)[C@H](CO)NC(=O)[C@H](Cc1c[nH]cn1)NC(=O)[C@H](CCCNC(=N)N)NC(=O)[C@H](CC(C)C)NC(=O)[C@H](Cc1ccccc1)NC(=O)[C@H](Cc1c[nH]cn1)NC(=O)[C@H](C)NC(=O)[C@H](CC(C)C)NC(=O)[C@H](CCCNC(=N)N)NC(=O)[C@H](CCC(N)=O)NC(=O)[C@@H](NC(=O)[C@H](C)NC(=O)[C@@H]1CSSC[C@H](NC(=O)[C@@H](N)CCCCNC(=O)CC[C@H](NC(=O)CCCCCCCCCCCCCCCCCCC(=O)O)C(=O)O)C(=O)N[C@@H](CC(N)=O)C(=O)N[C@@H]([C@@H](C)O)C(=O)N[C@@H](C)C(=O)N[C@@H]([C@@H](C)O)C(=O)N1)[C@@H](C)O)C(=O)N1CCC[C@H]1C(=O)N[C@@H](CO)C(=O)N[C@@H](CO)C(=O)N[C@H](C(=O)N[C@@H](CC(N)=O)C(=O)N[C@H](C(=O)NCC(=O)N[C@@H](Cc1c[nH]cn1)C(=O)N[C@@H](CC(N)=O)C(=O)N[C@H](C(=O)N[C@@H](Cc1ccc(O)cc1)C(N)=O)[C@@H](C)O)C(C)C)[C@@H](C)O
notes: also called compound 81

The binders below were run against T1, human calcitonin receptor (assay: ratio of hCTR IC50 to hAmylin-R IC50 (reference: human amylin receptor)).
In short: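 Membranes (35 ng/μL final) + SPA beads, 50 mM Hepes pH 7.4 buffer with 1 mM CaCl2, 5 mM MgCl₂, 0.1% OA, 0.02% Tween20; 120 min, 25° C, shaking; centrifuged, counted; IC₅₀ by one-site binding competition.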

Binder | Ratio hCT/hAmylin binding
B1 | 46.1
B2 | 11.1
B3 | 28.5
B4 | 13.3
B5 | 45.5
B6 | 87.2

Each binder was assayed against T1, human calcitonin receptor (assay: SPA competition on BHK cell membranes, 125I-calcitonin as radioligand (Assay VII)).
In short: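 BHK hCTR membranes 35 ng/μL + SPA beads 0.05 mg/well; buffer 50 mM Hepes pH 7.4, 1 mM CaCl2, 5 mM MgCl₂, 0.1% OA, 0.02% Tween20. 120 min, 25° C., shaking. Scintillation count; IC50 by one-site binding competition.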

Binder | IC50 [nM]
B1 | 36.4
B2 | 4.28
B3 | 6.62
B4 | 1.86
B5 | 18
B6 | 23.6
